The supplement of paper PMC10567573
± gives the standard deviation.

Assay: protein stability index of a GFP-peptide fusion (GPS, HEK-293T) (PSI 1-6); higher = more stable
[1] = treatment: DMSO, c terminus: a fixed tail appended
[2] = treatment: MLN4924 1 uM, 8 h, c terminus: a fixed tail appended
[3] = treatment: DMSO, c terminus: native
[4] = treatment: MLN4924 1 uM, 8 h, c terminus: native
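Also: 24-mer peptide tiles fused after GFP, lentivirally expressed, FACS-sorted into six equal bins by GFP/DsRed ratio, decoded by Illumina sequencing, PSI is the read-weighted mean bin number.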

Sequence | protein stability index [1] | protein stability index [2] | protein stability index [3] | protein stability index [4]
TRWLNSGRGDEASEEGQNGSSPKS [ADD1] | 5.4 ± 0.12 | 5.44 ± 0.24 | – | –
TSEQAPSSAPRDVQARMLSSTTIL [PTPRD] | 4.08 ± 0.15 | 4.03 ± 0.38 | – | –
TSGQVVAVKKFVESEDDPVVKKIA [CDKL4] | 4.66 ± 0.06 | 4.82 ± 0.35 | – | –
TSLTALSLASASPPLSGRSTPKLT [PPFIA4] | 4.17 ± 0.08 | 4.13 ± 0.12 | – | –
TTKGTSEMSEKRGPTSSNPRKRHR [MLH1] | 5.14 ± 0.41 | 5.04 ± 0.079 | – | –
TTLSFYGNSISISALQSLLQHLIG [PRAME] | 2.82 ± 0.46 | 2.82 ± 0.48 | – | –
TTNPHTSASHRPCVNGDVDKPSEP [SMG5] | 5.15 ± 0.23 | 5.12 ± 0.14 | – | –
TTTLEGSPSVPCIFCEEHFPVAEQ [ZNF277] | 4.17 ± 0.27 | 4.32 ± 0.26 | – | –
TTTVCLVAAALRYLQIFATRRSCI [FAM189A2] | 2.98 ± 0.42 | 2.89 ± 0.25 | – | –
TVAGSLNDFSYLHTNCFELSIYVG [CPXM2] | 2.79 ± 0.78 | 2.55 ± 0.7 | – | –
TVASMMHRQETVDCLKKFNARRKL [CAMK2D] | 3.17 ± 0.15 | 3.73 ± 0.72 | – | –
TVPSAATSQPTPSQHSAHTSSQP [CCDC6] | – | – | 5.42 ± 0.23 | 5.33 ± 0.15
TVYNEMDKNRCELLSFLLLMDYIG [EDNRA] | 2.09 ± 0.34 | 2.17 ± 0.5 | – | –
TYWEHWTSQGQVRMRLFGQRCQKC [RTP4] | 2.33 ± 0.43 | 2.72 ± 0.57 | – | –
VAIFGPPNTYYEGGYFKARLKFPI [CDC34] | 2.24 ± 0.41 | 2.58 ± 0.3 | – | –
VATTARHSAAYRADPLRVSSRDKL [FUNDC2] | 4.1 ± 0.096 | 4.1 ± 0.19 | – | –
VCDLQSLLGYTPEELHAMLDVKPD [ETS1] | 4.04 ± 0.21 | 4.07 ± 0.12 | – | –
VCEEQKCEEEVFPLAMNYLDRFLS [CCND1] | 3.59 ± 0.079 | 3.8 ± 0.18 | – | –
VCSDKRIPGFKFDNSLINQIENLN [LOXL2] | 2.56 ± 0.26 | 3.01 ± 0.25 | – | –
VDSPKNFNIAGTVVKYRRPMDVYE [ADAMTSL2] | 3.44 ± 0.36 | 3.49 ± 0.54 | – | –
VEILDLNDNSPSFATPEREMRISE [PCDHGC5] | 4.08 ± 0.31 | 4.2 ± 0.28 | – | –
VEVISDTLSKPSPMPVSQECFETL [CHGA] | 3.85 ± 0.092 | 3.87 ± 0.25 | – | –
VFDALESDHEMREEEKLKAEEIRI [KCNK9] | 5.27 ± 0.21 | 5.23 ± 0.17 | – | –

Sequence | protein stability index [1] | protein stability index [2] | protein stability index [3] | protein stability index [4]
VGFIMAGTPMALIVISYIHVAAAV [OR3A1] | 3.27 ± 0.35 | 2.87 ± 0.32 | – | –
VGVATARAPLHSVGYTALVGSDAE [SPSB4] | 4.35 ± 0.19 | 4.38 ± 0.3 | – | –
VHASGWNKILVPLVLLRQMLLELT [BCL2L13] | 2.2 ± 0.3 | 2.3 ± 0.24 | – | –
VIATATVYFKRFYARYSLKSIDPV [CCNC] | 2.8 ± 0.74 | 2.8 ± 0.64 | – | –
VIGFAKMIPGFRDLTSEDQIVLLK [VDR] | 2.36 ± 0.51 | 2.42 ± 0.46 | – | –
VINPMLNPIIYSFRNPDVQSAIWR [OR3A1] | 2.06 ± 0.51 | 2.24 ± 0.19 | – | –
VISPMYQLHKPLAEGTPRSNHSAQ [IKZF1] | 3.76 ± 0.32 | 4.06 ± 0.31 | – | –
VITKHNDDEQYAWESSAGGSFTVR [HSP90AB1] | 3.98 ± 0.2 | 4.16 ± 0.21 | – | –
VKSKAKKTVDKHSDEYKIRRERNN [CEBPB] | 4.78 ± 0.39 | 4.79 ± 0.2 | – | –
VMFKEPIEILPNVCYTACATLKGP [BTBD1] | 2.12 ± 0.22 | 2.14 ± 0.26 | – | –
VPEKRDSGMTEVERTYSANCSDFL [SPATS1] | 4.7 ± 0.17 | 4.89 ± 0.14 | – | –
VPGTQVGQGGKLWDPSVQSCKEGL [ZNF263] | 4.12 ± 0.12 | 4.26 ± 0.18 | – | –
VPTPLTNVQILLPVGEPVTNVRLQ [FCHO1] | 3.35 ± 0.34 | 3.36 ± 0.33 | – | –
VPWESDIWDINNQICTVKDIKAEP [ATF6] | 4.02 ± 0.24 | 3.9 ± 0.25 | – | –
VQLHNGTKYKKFPHWLDKWMLTRK [STEAP1] | 2.36 ± 0.044 | 2.19 ± 0.096 | – | –
VQLIQDTRIHILPSMNPDGYEVAA [CPN1] | 2.55 ± 0.23 | 2.57 ± 0.33 | – | –
VQLIWVVSQLYPESIVPIPSSNEE [INTS4] | 3.07 ± 0.45 | 2.81 ± 1.1 | – | –
VQLSQIQGLIGSVEEQLAQLRCEM [KRT17] | 3.04 ± 0.36 | 2.79 ± 0.32 | – | –
VRKSRDKAKRRNQEMQQKLVELSA [CEBPD] | 3.78 ± 0.34 | 3.72 ± 0.43 | – | –
VRKWRVKSALGAMGQWQLEVGDPA [DPCD] | 2.46 ± 0.26 | 2.57 ± 0.21 | – | –
VSASGKEMDWAQMACHRCLVYLGD [SMG5] | 2.1 ± 0.36 | 2.21 ± 0.52 | – | –
VSEDFNKMNFIKTYPAHQNRVSAI [WDFY1] | 2.9 ± 0.21 | 3.03 ± 0.46 | – | –
VSRGPGVNVGTTALWKHLKSMHRE [ZBED2] | 3.22 ± 0.14 | 3.3 ± 0.32 | – | –

Sequence | protein stability index [1] | protein stability index [2] | protein stability index [3] | protein stability index [4]
VSSEDSFVCQCFEGYILREDGKTC [MATN2] | 3.04 ± 0.26 | 3.08 ± 0.57 | – | –
VTGLNPKTKYILLMDIVPADDHRY [TBX5] | 2.63 ± 0.44 | 1.95 ± 0.53 | – | –
VTLARQAGEVVCEAIKNEMNVMLK [IMPA1] | 2.44 ± 0.4 | 2.44 ± 0.45 | – | –
VTNHNIRLFEDVRSWMFRRGPLNS [TRIM43] | 2.56 ± 0.45 | 2.49 ± 0.18 | – | –
VTSQERHCLQQRRKSVPGPGNRTC [ADAMTSL2] | 4.92 ± 0.42 | 4.824 ± 0.006 | – | –
VTVSDASWVSELLWSLFVPFTVYQ [AUP1] | 2.87 ± 0.55 | 3.14 ± 0.47 | – | –
VVFHCEFSSERGPRMCRYVRERDR [CDC25A] | 2.41 ± 0.56 | 2.4 ± 0.3 | – | –
VVHEDFREDILSCYDVYSPDKEEQ [PKD2L1] | 4.7 ± 0.33 | 4.69 ± 0.082 | – | –
VVRGGEVVHRSDEQQHYFNTPFQL [PPTC7] | 3.26 ± 0.47 | 3.43 ± 0.24 | – | –
VVTAEAVAVLKGEQEKEAQHKDQT [MAP2] | 5.49 ± 0.12 | 5.28 ± 0.21 | – | –
VVVCQCGLSIPSHSSELTEQKLRA [RPAIN] | 2.1 ± 0.43 | 2.36 ± 0.38 | – | –
VVYSCVEGKMYTARKGKGAFCNGQ [IMPA1] | 2.33 ± 0.27 | 2.36 ± 0.13 | – | –
VWAHNLIAIARLRGSDLKVLEVTE [FBXO33] | 2.63 ± 0.85 | 2.95 ± 1.1 | – | –
VYPKEFHLNRGNHEDHMVNLRYGF [PPEF2] | 2.69 ± 0.29 | 2.71 ± 0.36 | – | –
WDLVSASVVCRELGFGSAKEAVTG [LOXL2] | 2.58 ± 0.31 | 2.61 ± 0.089 | – | –
WGFVHPRLLSVPELCHHVAEVWVS [RETREG3] | 3.04 ± 0.64 | 2.63 ± 0.57 | – | –
WKESKGKDREYTDIIRKQVLGTKV [CDC34] | 3.66 ± 0.17 | 3.7 ± 0.4 | – | –
WKKLVLVDRNTRPGPQDPEESASR [ELOA2] | 4.28 ± 0.16 | 4.46 ± 0.11 | – | –
WLAVDGLVSPSNNSKEDAFSGTDW [ATF4] | 3.76 ± 0.19 | 3.76 ± 0.27 | – | –
WNMDKYTMIRKLEGHHHDVVACDF [WSB1] | 2.38 ± 0.19 | 2.58 ± 0.33 | – | –
WRMLTYKALNTFIDDLFAFVIKMP [CLPTM1] | 2.95 ± 0.4 | 2.96 ± 0.7 | – | –
WSECSRTCGEGYQFRVVRCWKMLS [ADAMTSL2] | 3.1 ± 1.8 | 2.19 ± 0.34 | – | –
WTQATGLGCALLAAHAVVLCALPV [SOAT2] | 3.18 ± 0.35 | 2.97 ± 0.095 | – | –

Sequence | protein stability index [1] | protein stability index [2] | protein stability index [3] | protein stability index [4]
WVDITDVPPGDYLFQVVINPNFEV [LOXL2] | 2.94 ± 0.71 | 2.91 ± 0.98 | – | –
YCDLPQLFQLSCSSTQLNELLLFA [OR3A1] | 2.61 ± 0.36 | 2.64 ± 0.57 | – | –
YDPFRDAVTLRCGHNFCRGCVSRC [TRIM35] | 2.69 ± 0.46 | 2.74 ± 0.4 | – | –
YFDPLRNEYFFDRNRPSFDAILYY [KCNA3] | 2.62 ± 0.54 | 2.44 ± 0.32 | – | –
YFTDLFDYLPLTALVDGQIFCLHG [PPP2CA] | 3.22 ± 0.39 | 2.91 ± 0.3 | – | –
YGCKVADIKKVNNFIREQDLYALK [LYSMD4] | 2.27 ± 0.22 | 2.39 ± 0.21 | – | –
YGLDSVKKKCLEWLLNNLMTHQNV [GMCL1] | 3.09 ± 0.26 | 2.73 ± 0.21 | – | –
YILELDDGNGGQFREVYVGKETMC [TRIM9] | 2.28 ± 0.11 | 2.29 ± 0.16 | – | –
YILLVGYPPFWDEDQHRLYQQIKA [CAMK2D] | 2.46 ± 0.099 | 2.54 ± 0.67 | – | –
YKNIKRPPGDIMFLLVQRFGELMR [USP39] | 2.29 ± 0.16 | 2.14 ± 0.17 | – | –
YLCFLLAVLLQLYVATEAILIALV [SLC22A15] | 2.64 ± 0.38 | 2.51 ± 0.63 | – | –
YLCKRVPHTVLDRQLLCLIDYYES [CEP70] | 2.1 ± 0.58 | 2.21 ± 0.32 | – | –
YLKKNHEEEMNALRGQVGGEINVE [KRT17] | 4.39 ± 0.23 | 4.75 ± 0.12 | – | –
YLLQWLKSDKALMMLFNDGTFQVN [PLK2] | 2.73 ± 0.53 | 2.53 ± 0.51 | – | –
YLSPRDFLSGLAFRVFHCTQYVRH [TPH1] | 2.31 ± 0.2 | 2.08 ± 0.17 | – | –
YNIATRRKALKNPSEEYGKILEVV [MLH1] | – | 2.74 ± 0.48 | – | –
YNIKLEGKVPMHKLFLEMLEAKV [ESRRG] | – | – | 2.83 ± 1.5 | 2.43 ± 1
YNYMMGIEFNPRIGKWFDFKLFFN [DHCR7] | 2.52 ± 0.53 | 2.23 ± 0.33 | – | –
YPHTRIQSLVSILRTTVHHAFPVV [CLCN6] | 2.42 ± 0.57 | 2.14 ± 0.15 | – | –
YQNELHKFLIWDTAGQERFRALAP [RAB22A] | 2.29 ± 0.045 | 2.46 ± 0.37 | – | –
